Tests used:
[1] = Acute drug overdose test: METH-induced lethality; format: in vivo, mouse; details: 34, 68, 100, 160 mg/kg METH i.p.
Description: For all behavioral experiments except where noted, C57BL/6J mice were used. Roughly equal numbers of adult male and female mice were group-housed until surgery. Mice were maintained under controlled temperature and humidity conditions on a 12 h:12 h light:dark cycle (lights on at 7:00). Water and food were available ad libitum. Mice weighed around 25-30 g at the beginning of the experiments. All procedures followed National Institutes of Health Guide for the Care and Use of Laboratory Animal and were approved by the University of Chicago Institutional Animal Care and Use Committee.
Drug: Cocaine HCl and methamphetamine HCl (Sigma-Aldrich, Saint Louis, MO) were dissolved in sterile saline and delivered intraperitoneally at appropriates doses in a volume of 10 mL/kg. […]
Acute drug overdose test: Two weeks after grafting surgery, 4 groups of GhBChE and 4 groups of GWT mice (n=8 each in each group) received i.p. injections of cocaine at 40, 120, and 160 mg/kg. […] Mice were monitored for 2 h following injection and percent of cocaine- and METH-induced lethality was calculated.
To first determine whether engrafting hBChE-expressing cells protects mice from acute systemic toxicity of cocaine, we delivered different doses of cocaine to grafted mice and calculated the lethality rates of cocaine. […]

[2] = hBChE in blood by ELISA, nude mice grafted with human skin organoids

B1: hBChE: modified human butyrylcholinesterase (E30-6, SEQ ID NO: 41), cocaine hydrolase, expressed from engineered epidermal cells / skin grafts (protein)
chain: MHSKVTIICIRFLFWFLLLCMLIGKSHTEDDIIIATKNGKVRGMNLTVFGGTVTAFLGIPYAQPPLGRLRFKKPQSLTKWSDIWNATKYANSCCQNIDQSFPGFHGSEMWNPNTDLSEDCLYLNVWIPAPKPKNATVLIWIYGGGFQTGTSSLHVYDGKFLARVERVIVVSMNYRVGALGFLALPGNPEAPGNMGLFDQQLALQWVQKNIAAFGGNPKSVTLFGESSGAASVSLHLLSPGSHSLFTRAILQSGSANAPWAVTSLYEARNRTLNLAKLTGCSRENETEIIKCLRNKDPQEILLNEAFVVPYGTALGVNFGPTVDGDFLTDMPDILLELGQFKKTQILVGVNKDEGTWFLVGGAPGFSKDNNSIITRKEFQEGLKIFFPGVSEFGKESILFHYTDWVDDQRPENYREALGDVVGDYNFICPALEFTKKFSEWGNNAFFYYFEHRSSKLPWPEWMGVMHGYEIEFVFGLPLERRDNYTKAEEILSRSIVKRWANFAKYGNPNETQNNSTSWPVFKSTEQKYLTLNTESTRIMTKLRAQQCRFWTSFFPKVLEMTGNIDEAEWEWKAGFHRWNNYMMDWKNQFNDYTSKKESCVGL
modifications: Human mutant BChE
- METH-induced lethality, GhBChE vs GWT [1]: no difference in lethality
- duration of stable hBChE expression in vivo ([2]; human grafts): more than 8 weeks
- level of human BChE in the blood ([2]; human hBChE-expressing grafts): significantly levels of human BChE in the blood

From patent US20230392126A1, “TISSUE ORGANOIDS” (priority 2016, published 2023)
